± gives the standard deviation.
Test: protein stability index of a GFP-peptide fusion (GPS, HEK-293T) (PSI 1-6); higher = more stable
Conditions: c terminus: a fixed tail appended
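Also: 24-mer peptide tiles fused after GFP, lentivirally expressed, FACS-sorted into six equal bins by GFP/DsRed ratio, decoded by Illumina sequencing, PSI is the read-weighted mean bin number.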

Sequence | protein stability index (treatment: DMSO) | protein stability index (treatment: MLN4924 1 uM, 8 h)
AWFLPMPQKSLFFHHIPSTCQRVN [SLC19A2] | 2.29 ± 0.48 | 2.23 ± 0.075
MAAWGKKHAGKDPVRDECEERNRF [FAM9B] | 4.59 ± 0.23 | 4.62 ± 0.34
PGLGQESKAPGSCDPGTDPCPEDA [TLE6] | 5.65 ± 0.27 | 5.55 ± 0.22
VVAEAQTRVSQLGLQVEGLRRRLE [LRRC45] | 3.71 ± 0.4 | 3.82 ± 0.51
PPVWYLKEEDHYQRARKEREKEDY [RHOBTB2] | 5.16 ± 0.12 | 5.22 ± 0.16
TYKCTKQLLSERFGRGSRTVDLEL [ARFIP2] | 2.43 ± 0.32 | 2.33 ± 0.18
PHAPPFAGGHPAQLGLGRGASTFK [JUNB] | 4.11 ± 0.083 | 4.34 ± 0.066
RTDVGITHQHWQQFEPQLTLWDVF [RSAD1] | 2.25 ± 0.4 | 2.38 ± 0.39
EADSQEQGHPQTGCECEDGPDGQE [GAGE1] | 5.57 ± 0.28 | 5.57 ± 0.15
DGEGAGPGEQGGGKLVLSSLPKRL [ESRRA] | 4.94 ± 0.14 | 4.68 ± 0.15
QREEVEERMWAAIQSWDINSRRNI [ZER1] | 3.75 ± 0.36 | 3.69 ± 0.29
PPSSGNGPAPPPLPPALVPAGGLA [WAS] | 4.66 ± 0.47 | 4.67 ± 0.29
DNSLINQIENLNIQVEDIRIRAIL [LOXL2] | 2.59 ± 0.25 | 2.66 ± 0.17
ENCTLVTTFRGHTGGVTALCWDPV [WDFY2] | 2.53 ± 0.32 | 2.38 ± 0.18
RAQKQCRKSSFAFYQAVRDLLPVW [ANKRD9] | 2.33 ± 0.49 | 1.98 ± 0.31
VSISIISSTSGGSGYGFRPSMVSG [KRT71] | 2.84 ± 0.52 | 3.01 ± 0.93
GEASYSTIAPTLIADLFVADQRSR [SPNS1] | 3.21 ± 0.39 | 3.29 ± 0.6
PSGSLENGTKADGKDAKTTNGHGG [TRIM29] | 5.26 ± 0.45 | 5.58 ± 0.35
MASCAEPSEPSAPLPAGVPPLEDF [FKBP8] | 4.97 ± 0.28 | 5.05 ± 0.14
EDQYIFIHDALLEAVTCGNTEVPA [PTPRD] | 3.1 ± 0.32 | 3.01 ± 0.31
FVAGGISGTVAAVLTLPFDVVKTQ [SLC25A39] | 2.95 ± 0.63 | 2.76 ± 0.84
GLHVQHMGTSHGITRPSPRRSNSP [CCDC6] | 4.51 ± 0.17 | 4.57 ± 0.082
VGCKGSKAGIEQEGYWLPGDEISI [ZMYND11] | 3.18 ± 0.32 | 3.13 ± 0.31

Sequence | protein stability index (treatment: DMSO) | protein stability index (treatment: MLN4924 1 uM, 8 h)
ESRKSKRRNSEFEIFVDCDINREQ [TPH1] | 4.85 ± 0.31 | 4.92 ± 0.59
YRGTLKRQPAFDTFDGSLFAVFPS [ETS2] | 2.31 ± 0.42 | 2.08 ± 0.14
KQCIVAHPVNPPYYIPLVELVPHP [CRYL1] | 2.33 ± 0.17 | 2.47 ± 0.32
FACPSKTDFFKNIMNFIDIVAIIP [KCNA1] | 3.29 ± 0.58 | 3.1 ± 0.49
KAEECDTITLNCPRNSDMKNQGEE [EDARADD] | 5.62 ± 0.32 | 5.51 ± 0.31
SDFKTDKEGGQAGSGQRVPALEEA [ELOA2] | 5.61 ± 0.18 | 5.49 ± 0.22
LGFKANIMNEKCVVENAEKILGYL [SLC6A17] | 2.43 ± 0.23 | 2.26 ± 0.14
LERASATLQDLVFDECGITDDQLL [PRAME] | 4.65 ± 0.36 | 4.71 ± 0.35
ELHPESGEEAVTLVEDMQRELGRL [ZNF263] | 4.88 ± 0.41 | 5.13 ± 0.26
FLEQRPQSPTLEFLLRNSQRTVGQ [EDARADD] | 3.15 ± 0.32 | 3.43 ± 0.34
ADIPSVAFSSRLGGSRGAPGLLMA [DCAF4] | 2.83 ± 0.2 | 2.78 ± 0.51
QVAFGSLYRDDVLIKPSRVVAILA [GMCL1] | 2.38 ± 0.62 | 2.46 ± 0.48
IMPDGTIVTTVTTVQSRPRIDGKL [C2CD2L] | 3.31 ± 0.16 | 3.29 ± 0.39
TEKSGKREFDVRQTPQVNINPFTP [WEE1] | 4.42 ± 0.25 | 4.25 ± 0.094
TSSCPNVSERSFDNVRSLKVESGA [CRYBA1] | 5 ± 0.44 | 4.63 ± 0.2
SSARIPKCPWMEGGEMSPQVETSI [INTS4] | 3.9 ± 0.14 | 4.12 ± 0.1
ATTNACEKPIGSCVTNPCGPRSRC [KRT33B] | 3.92 ± 0.17 | 4.14 ± 0.23
QLQHDFPRALIFSTDDFFFREDGA [N4BP2L1] | 3.09 ± 0.24 | 3.08 ± 0.47
SNLIRHQRIHAAERLCMGVDCTEI [ZNF263] | 3.17 ± 0.2 | 3.18 ± 0.21
PKRLRCWEEEEDHEKERPEHKSLE [FANCE] | 5.32 ± 0.17 | 5.37 ± 0.33
RVQSVDFMRTDPVCQKLLLDAMNY [KLHL14] | 2.74 ± 0.2 | 2.64 ± 0.22
SMQYNGSYFDRGAKGGSRLCTPEG [DFFB] | 2.98 ± 0.14 | 3.35 ± 0.35
CYDVYSPDKEEQLPFGPFNGTAWT [PKD2L1] | 2.75 ± 0.14 | 2.59 ± 0.12

Sequence | protein stability index (treatment: DMSO) | protein stability index (treatment: MLN4924 1 uM, 8 h)
FEQGKWDVFSENLLADVKGARAAL [STX11] | 2.67 ± 0.14 | 2.72 ± 0.45
TQRRTSMGGTQQQFVEGVRMEEIV [CTNNB1] | 4.05 ± 0.47 | 4.26 ± 0.37
KDDKDFTGTVHRIDNTTVIYNSNI [KCNA1] | 4.29 ± 0.2 | 4.37 ± 0.2
LHSAIYAARPDVKCVVHIHTPAGA [ADD1] | 2.24 ± 0.22 | 2.11 ± 0.28
NRRDVEAWFFSKTEELNKEVASNT [KRT15] | 4.05 ± 0.26 | 4.12 ± 0.23
CSYTDLLPQDEGGGGYSSVRYSDC [KCNA4] | 2.67 ± 0.27 | 2.68 ± 0.24
GPQLEGEKDWGLEGYVWRGSQLED [ZSWIM9] | 4.52 ± 0.23 | 4.45 ± 0.28
NEPSINFYKRRGASDLSSEEGWRL [SAT1] | 3.69 ± 0.4 | 3.84 ± 0.17
RTSKSRGFAFITFENPADAKNAAK [RBMY1A1] | 3.26 ± 0.28 | 3.46 ± 0.43
SLYENDCIFDKFECVWNGSDSVIM [PPP2R2B] | 2.06 ± 0.71 | 2.07 ± 0.37
YDGLDCQARQFRTFHHPTYGSCYT [SCNN1D] | 2.54 ± 0.1 | 2.59 ± 0.18
CTNSPAIVRFSGQSRGVPAVSESY [FBXO34] | 3.21 ± 0.46 | 3.14 ± 0.45
HTPSDTGVSFQAISSMADFWDFAQ [PKD2L1] | 2.85 ± 0.36 | 3.01 ± 0.35
DFVMSLTFPFKILGDSGLGPWQLN [P2RY14] | 3 ± 0.56 | 3.08 ± 0.74
LAVSNMGARSKGQCPEPPIVVHCS [PTPN9] | 3 ± 0.33 | 2.95 ± 0.28
KLVHFLLLKYRAREPVTKAEMLGS [MAGEA6] | 2.81 ± 0.48 | 2.78 ± 1.3
VYRAELVGELNGYLRDSSPAPCAD [PWWP2B] | 3.31 ± 0.21 | 3.52 ± 0.27
HLYLLRGLPGSGKTTLARQLQHDF [N4BP2L1] | 2.35 ± 0.47 | 2.27 ± 0.29
FRVFHCTQYVRHSSDPFYTPEPDT [TPH1] | 2.15 ± 0.19 | 2.27 ± 0.35
SGKWTFQRDSKRWSRLEEFDVFSP [DLC1] | 2.46 ± 0.28 | 2.53 ± 0.34
EEKRRREEEERLRREEEERRRIEE [ACBD3] | 5.53 ± 0.29 | 5.49 ± 0.28
KRIEAEEAIKGLNGQKPLGAAEPI [ELAVL3] | 4.77 ± 0.16 | 4.951 ± 0.042
AKPEVLSIQWPGKRSSRRVQRHNS [NECAB1] | 4.23 ± 0.2 | 4.37 ± 0.21

Sequence | protein stability index (treatment: DMSO) | protein stability index (treatment: MLN4924 1 uM, 8 h)
GSGLSSRFEEPKGPPARQEDSKEL [CBY2] | 5.35 ± 0.27 | 5.5 ± 0.25
SQWKDPALSQLICFCRESRYMDQW [GADD45A] | 2.19 ± 0.19 | 2.31 ± 0.23
AERLGVTFFEVSPLCNFNITESFT [RAB40B] | 2.13 ± 0.15 | 2.22 ± 0.16
EVVNMAVIVPKEEGVISVSEDRTV [WDFY2] | 4.04 ± 0.42 | 4.22 ± 0.34
FDTFIQKTKKLYIDSRARRNLGSI [SEC22B] | 2.48 ± 0.5 | 2.22 ± 0.12
NTGKTYFFVANKYWRYDEYKRSMD [MMP1] | 1.98 ± 0.17 | 2.2 ± 0.19
DLIESDPDAWCDLSKFDLPEEPSA [MYBL2] | 5.01 ± 0.35 | 5.02 ± 0.17
MESRKDITNQEELWKMKPRRNLEE [STEAP1] | 4.91 ± 0.37 | 4.92 ± 0.34
THLENPTRYHLQQARRQQVKQYLS [TFE3] | 3.38 ± 0.17 | 3.64 ± 0.22
DQTSLLVVDKETDNMYRLAHFSPF [PDZK1] | 2.61 ± 0.32 | 2.75 ± 0.26
AKDLPCDSKPESALGAPSKSPSSP [TBX5] | 5.49 ± 0.26 | 5.54 ± 0.2
DMKSLKQVLEMKNQQIHEQEKKIL [MTUS2] | 4.23 ± 0.046 | 4.31 ± 0.33
TQHHFAFQNAERAFKAAALIQRWY [PPEF2] | 3.09 ± 0.14 | 3.08 ± 0.18
EVEIVGVQEHARCVHPRGGVIQSV [C18orf25] | 3.45 ± 0.35 | 3.6 ± 0.31
GDVLHAHLDIWKSAAWMKERTSPG [SPDEF] | 2.92 ± 0.48 | 3.06 ± 0.46
TEATISIREDEVHRLGSPYGHCTA [SCNN1D] | 3.93 ± 0.29 | 3.88 ± 0.16
GPWLEWEIMLQYCFPRLDINVSKG [PRIM1] | 2.4 ± 0.19 | 2.88 ± 0.94
HPVLHKEEKQHLERLNKEYQEIFQ [TRIM43] | 3.9 ± 0.47 | 4.06 ± 0.4
ALAVCLSFFYPVLFVLFMFFGMAF [SOAT1] | 2.84 ± 0.46 | 2.94 ± 0.75
FDDEEPRKFYVHIKPAPARAPACS [FCHO1] | 3.27 ± 0.14 | 3.29 ± 0.38
